Measured values published in patent publication US20070104732A1 (published 2007).

Experiments:
Test in all cases: cell-based or functional assay
[1] = biological target: EGFR-Ecoil pseudoreceptor (UniProt P00533)
[2] = biological target: cellular proteins integrins
[3] = biological target: EGFR-Ecoil pseudoreceptor (UniProt P00533 646-1210)

Molecule: K-coil soluble peptide
- inhibition of AdFK4m/GFP mediated GFP gene transfer in 293E cells after pre-incubation with 2 ug K-coil soluble peptide, MOI 0.05 [1]: 80%

Molecule: Modified fiber FK4mm-RGD of AdFK4mmRGD/GFP (S->E at aa 408, P->A at aa 409, RGD motif in the HI-loop, K4 K-coil at the C-terminus) (from UniProt P11818 1-581)
- transduction efficiency of AdFK4mmRGD/GFP in HeLa-rtTA and A549-tTA cells relative to AdFK4m/GFP (GFP expression, flow cytometry) [2]: 3 to 6 fold
- transduction of 293E cells by AdFK4mmRGD/GFP relative to AdFK4m/GFP (GFP expression, flow cytometry) [2]: 2 to 3 times

B1: Chimeric adenoviral fiber FK4m of AdFK4m/GFP (S->E at aa 408, K4 K-coil at the C-terminus) (other)
chain (part 1 of 2): MKRARPSEDTFNPVYPYDTETGPPTVPFLTPPFVSPNGFQESPPGVLSLRLSEPLVTSNGMLALKMGNGLSLDEAGNLTSQNVTTVSPPLKKTKSNINLEISAPLTVTSEALTVAAAAPLMVAGNTLTMQSQAPLTVHDSKLSIATQGPLTVSEGKLALQTSGPLTTTDSSTLTITASPPLTTATGSLGIDLKEPIYTQNGKLGLKYGAPLHVTDDLNTLTVATGPGVTINNTSLQTKVTGALGFDSQGNMQLNVAGGLRIDSQNRRLILDVSYPFDAQNQLNLRLGQGPLFINSAHNLDINYNKGLYLFTASNNSKKLEVNLSTAKGLMFDATAIAINAGDGLEFGSPNAPNTNPLKTKIGHGLEFDSNKAMVPKLGTGLSFDSTGAITVGNKNNDKLTLWTTPAPEPNCRLNAEKDAKLTLVLTKCGSQILATVSVLAVKGSLAPISGTVQSAHLIIRFDENGVLLNNSFLDPEYWNFRNGDLTEGTAYTNAVGFMPNLSAYPKSHGKTAKSNIVSQVYLNGDKTKPVTLTITLNGTQETGDTTPSAYSMSFSWDWSGHNYINEIFATSSYTFSYIAQE
chain (part 2 of 2): KVSALKEKVSALKEKVSALKEKVSALKE
- transduction efficiency (GFP expression, flow cytometry) of AdFK4m/GFP in 293E cells compared with 293 cells, MOI 0.01 [3]: 7 fold
- transduction efficiency (GFP expression, flow cytometry) of AdFK4m/GFP in 293E cells compared with 293 cells, MOI 0.05 [3]: 24 fold
- transduction efficiency (GFP expression, flow cytometry) of AdFK4m/GFP in 293E cells compared with 293 cells, MOI 0.5 [3]: 11 fold
- transduction efficiency (GFP expression, flow cytometry) of AdFK4m/GFP in 293E cells compared with 293 cells, MOI 0.8 [3]: 8 fold
